Article PMC10681800, “Structural and functional investigation of GajB protein in Gabija anti-phage defense” (Nucleic Acids Research, 2023)
Values joined by “and” are separate entries in the source; they are usually repeats but may differ in a detail not shown here. Equal entries are not always repeated.

T1: GajB of the Gabija anti-phage defense system of Bacillus cereus VD045, purified on its own, (His)6-MBP tag … (Bacillus cereus VD045, UniProt J8HQ06 1-494)
T1 chain: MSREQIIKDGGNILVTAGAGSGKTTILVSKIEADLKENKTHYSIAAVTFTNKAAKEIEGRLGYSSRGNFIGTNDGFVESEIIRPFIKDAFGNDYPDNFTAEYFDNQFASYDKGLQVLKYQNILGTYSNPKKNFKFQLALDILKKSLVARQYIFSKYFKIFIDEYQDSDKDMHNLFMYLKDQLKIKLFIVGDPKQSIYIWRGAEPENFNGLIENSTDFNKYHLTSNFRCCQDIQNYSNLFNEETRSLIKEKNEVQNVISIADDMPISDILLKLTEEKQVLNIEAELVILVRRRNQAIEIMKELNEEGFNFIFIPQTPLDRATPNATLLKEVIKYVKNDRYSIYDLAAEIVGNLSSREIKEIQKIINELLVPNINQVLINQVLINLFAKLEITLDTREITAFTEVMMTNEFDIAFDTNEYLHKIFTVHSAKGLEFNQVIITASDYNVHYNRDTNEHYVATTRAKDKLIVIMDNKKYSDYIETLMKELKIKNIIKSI

T2: GajA;GajB (Bacillus cereus VD045;Bacillus cereus …, UniProt J8H9C1;J8HQ06 1-578;1-494, |)
T2 sequence 1: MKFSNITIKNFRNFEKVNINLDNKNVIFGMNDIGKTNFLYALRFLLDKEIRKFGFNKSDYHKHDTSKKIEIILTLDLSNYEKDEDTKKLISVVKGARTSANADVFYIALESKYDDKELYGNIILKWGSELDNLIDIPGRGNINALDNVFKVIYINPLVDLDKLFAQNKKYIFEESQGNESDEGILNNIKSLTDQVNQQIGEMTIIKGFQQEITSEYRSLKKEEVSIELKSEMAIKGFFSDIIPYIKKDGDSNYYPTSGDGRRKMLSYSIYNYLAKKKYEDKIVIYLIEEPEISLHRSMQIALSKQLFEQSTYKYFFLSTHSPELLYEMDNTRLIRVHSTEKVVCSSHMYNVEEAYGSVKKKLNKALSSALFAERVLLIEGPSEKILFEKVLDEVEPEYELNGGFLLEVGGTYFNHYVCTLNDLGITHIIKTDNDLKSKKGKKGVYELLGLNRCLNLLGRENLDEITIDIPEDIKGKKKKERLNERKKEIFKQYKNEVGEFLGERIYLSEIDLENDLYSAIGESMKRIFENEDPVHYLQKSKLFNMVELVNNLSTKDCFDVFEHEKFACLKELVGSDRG
T2 sequence 2: T1 chain

T3: UvrD (Escherichia coli DH5alpha, UniProt P03018 1-720)
T3 sequence: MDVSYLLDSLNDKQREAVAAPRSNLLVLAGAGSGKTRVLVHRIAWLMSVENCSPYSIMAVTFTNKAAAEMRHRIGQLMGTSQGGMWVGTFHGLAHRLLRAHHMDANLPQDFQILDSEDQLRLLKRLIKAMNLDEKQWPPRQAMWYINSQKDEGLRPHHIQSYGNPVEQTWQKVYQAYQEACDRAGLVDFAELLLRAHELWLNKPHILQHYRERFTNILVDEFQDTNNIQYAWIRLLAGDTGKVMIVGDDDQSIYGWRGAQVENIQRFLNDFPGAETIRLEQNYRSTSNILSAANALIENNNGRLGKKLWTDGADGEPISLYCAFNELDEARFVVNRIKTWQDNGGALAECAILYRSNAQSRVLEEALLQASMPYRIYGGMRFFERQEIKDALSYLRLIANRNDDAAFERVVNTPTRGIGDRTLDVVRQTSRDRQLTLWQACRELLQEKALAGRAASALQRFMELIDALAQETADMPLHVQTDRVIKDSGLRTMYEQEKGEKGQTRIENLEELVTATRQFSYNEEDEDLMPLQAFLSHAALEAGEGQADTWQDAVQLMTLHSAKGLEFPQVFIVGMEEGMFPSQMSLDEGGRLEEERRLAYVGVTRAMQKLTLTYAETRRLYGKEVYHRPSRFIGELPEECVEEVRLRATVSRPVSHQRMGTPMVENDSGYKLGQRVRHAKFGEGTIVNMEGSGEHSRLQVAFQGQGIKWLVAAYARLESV

T4: GajB (Bacillus cereus VD045, UniProt J8HQ06 1-494)
T4 sequence: T1 chain

B1: GajA of the Gabija anti-phage defense system of Bacillus cereus VD045, with a C-terminal (His)6 tag, purified on its own (enzyme, UniProt J8H9C1 1-578, looked up)
chain: T2 sequence 1
notes: GajA, Bacillus cereus VD045, synthetic gene in pET21a; 67.0 kDa as printed; Tetramer by SEC-MALS and analytical SEC; also called individually purified GajA; separately purified GajA; source: E. coli BL21(DE3), purified (HisTrap HP, SEC Superdex 200)
B2: 3'-tailed dsDNA (dsDNA)
DNA 1: TCGGTACGACCTGCGAGCACTGCTT
DNA 2: AAGCAGTGCTCGCAGGTCGTACCGATTTTTTTTTTTTTTT
B3: GajB of the Gabija anti-phage defense system of Bacillus cereus VD045, purified on its own, (His)6-MBP tag cleaved by TEV protease (natural protein)
chain: T1 chain
notes: GajB, Bacillus cereus VD045, synthetic gene in pET28a with (His)6-MBP and a TEV site; 57.1 kDa as printed; the subdomains of the crystal structure span residues 1-494; the shorter of the two GajB forms that the discussion tells of (the long form has five more N-terminal residues); Monomer by SEC-MALS and analytical SEC; also called individually purified GajB; separately purified GajB; source: E. …

How the values were obtained:
[1] = molecular target: B3; experiment: ITC; 4°C; 20 μM GajB in the cell titrated with 20 injections of 2 μl of 200 μM GajA; 300 mM NaCl, 1 mM TCEP, 10% glycerol, 20 mM HEPES pH 7.5; triplicate; details: both partners purified
[2] = molecular target: the molecule itself; experiment: SEC-MALS + SEC; each protein alone; Superdex 200 Increase 10/300 GL with miniDAWN/Optilab, 300 mM NaCl, 2 mM DTT, 5% glycerol, 20 mM HEPES pH 7.5, 20 μM, 25 °C; analytical SEC in the same buffer
[3] = molecular target: T1, GajB of the Gabija anti-phage defense …; experiment: ITC
[4] = molecular target: T2, GajA;GajB; experiment: EMSA; 10 uM protein, 5 uM DNA, 5 mM Mg2+, no ATP; EMSA: 5 mM MgCl2, 1 mM DTT, 0.75 uM BSA, 20 mM Tris-HCl pH 7.5, 25 C, 90 min; 2% agarose gel, ethidium bromide; details: protein: recombinant;recombinant; chain copies: 4;4; label: fluorescein on the 25-mer in helicase assay; 25 bp duplex, 3' overhang 15 nt (T15) on strand 2
[5] = molecular target: T3, UvrD; experiment: as above; details: protein: recombinant; tags: N-terminal His6-MBP removed with TEV protease (as for GajB); label: fluorescein on the 25-mer in helicase assay; 25 bp duplex, 3' overhang 15 nt (T15) on strand 2
[6] = molecular target: T4, GajB; experiment: as above; details: protein: recombinant; tags: N-terminal His6-MBP removed with TEV protease; label: fluorescein on the 25-mer in helicase assay; 25 bp duplex, 3' overhang 15 nt (T15) on strand 2
[7] = molecular target: B1; experiment: ITC; 4°C; 20 μM GajB in the cell titrated with 20 injections of 2 μl of 200 μM GajA; 300 mM NaCl, 1 mM TCEP, 10% glycerol, 20 mM HEPES pH 7.5; triplicate; details: both partners purified
[8] = molecular target: B1; experiment: SEC; analytical SEC, Superdex 200 10/300 GL; 300 mM NaCl, 2 mM DTT, 5% glycerol, 20 mM HEPES pH 7.5; samples 20 μM each, incubated at 4°C for 1 h before loading; also GajA pre-incubated with increasing amounts of GajB; details: both partners purified
[9] = molecular target: B1; experiment: SEC-MALS; GajA pre-incubated with an excess of GajB (molar ratio 4:8); Superdex 200 Increase 10/300 GL, 300 mM NaCl, 2 mM DTT, 5% glycerol, 20 mM HEPES pH 7.5, 25 °C; details: both partners purified

## B1
[1]
  stoichiometry N: ~1
[2]
  stoichiometry N: 4
[3]
  Kd: 54.3 nM and 36.9 nM

## B2
[4]
  binding result: no binding
[5]
  binding result: binds
[6]
  binding result: no binding

## B3
[7]
  Kd: ~46.4 nM
[8]
  stoichiometry N: 4 GajB monomers per GajA tetramer
[9]
  stoichiometry N: 4 GajB monomers per GajA tetramer (4:4)
